Columns and labels:
[1] = biological target: T1, SERK3^250–615 (entire cytoplasmic portion, JM–KD–CT) (Arabidopsis thaliana), Q94F62; assay: SEC; settings: remark: other sources report otherwise
T1 chain: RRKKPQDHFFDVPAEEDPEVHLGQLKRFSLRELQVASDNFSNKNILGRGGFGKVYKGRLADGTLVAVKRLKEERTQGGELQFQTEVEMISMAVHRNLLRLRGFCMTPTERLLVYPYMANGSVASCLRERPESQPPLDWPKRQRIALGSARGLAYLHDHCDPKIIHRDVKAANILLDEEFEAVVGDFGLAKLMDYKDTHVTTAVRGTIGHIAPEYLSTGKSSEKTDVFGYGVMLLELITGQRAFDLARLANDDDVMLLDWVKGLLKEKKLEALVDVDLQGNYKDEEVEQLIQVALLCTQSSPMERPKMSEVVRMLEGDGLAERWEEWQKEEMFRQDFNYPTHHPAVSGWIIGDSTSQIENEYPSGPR

SEC = biological target: the molecule itself; assay: SEC

B1: SERK3^250–615 (entire cytoplasmic portion, JM–KD–CT), Q94F62 250-615 (domain or fragment)
chain: RRKKPQDHFFDVPAEEDPEVHLGQLKRFSLRELQVASDNFSNKNILGRGGFGKVYKGRLADGTLVAVKRLKEERTQGGELQFQTEVEMISMAVHRNLLRLRGFCMTPTERLLVYPYMANGSVASCLRERPESQPPLDWPKRQRIALGSARGLAYLHDHCDPKIIHRDVKAANILLDEEFEAVVGDFGLAKLMDYKDTHVTTAVRGTIGHIAPEYLSTGKSSEKTDVFGYGVMLLELITGQRAFDLARLANDDDVMLLDWVKGLLKEKKLEALVDVDLQGNYKDEEVEQLIQVALLCTQSSPMERPKMSEVVRMLEGDGLAERWEEWQKEEMFRQDFNYPTHHPAVSGWIIGDSTSQIENEYPSGPR
stoichiometry N [1]: 2

B2: SERK2^281–628 (cytoplasmic portion, JM–KD–CT) (domain or fragment, Arabidopsis thaliana, UniProt Q9XIC7 281-628, looked up)
chain: EDPEVHLGQLKRFSLRELQVATDSFSNKNILGRGGFGKVYKGRLADGTLVAVKRLKEERTPGGELQFQTEVEMISMAVHRNLLRLRGFCMTPTERLLVYPYMANGSVASCLRERPPSQLPLAWSIRQQIALGSARGLSYLHDHCDPKIIHRDVKAANILLDEEFEAVVGDFGLARLMDYKDTHVTTAVRGTIGHIAPEYLSTGKSSEKTDVFGYGIMLLELITGQRAFDLARLANDDDVMLLDWVKGLLKEKKLEMLVDPDLQSNYTEAEVEQLIQVALLCTQSSPMERPKMSEVVRMLEGDGLAEKWDEWQKVEVLRQEVELSSHPTSDWILDSTDNLHAMELSGPR
stoichiometry N (SEC): 2

Reference: PMC4260089 (The Plant Journal, 2014)
